Measurements from article PMC10990141.

Molecular target: F-actin from rabbit skeletal muscle G-actin (rabbit) (UniProt P68135)
Test: cryoEM images and 2D image averages; 0.83 uM full-length myosin-5a, 3.6 uM calmodulin, 2.1 uM F-actin, 0.20 mM ATP, 95 mM KCl, 48 uM MgCl2, 0.12 mM EGTA, 10 mM MOPS pH 7.0, 22 °C; applied within 10 s to a lacey carbon grid and flash frozen

- percent of the added myosin attached to actin: < 10%
Substance: full-length mouse myosin-5a, melanocyte-specific isoform, with calmodulin (from UniProt P0DP23 1-149) (complex)
